Results from IntAct's records for PubMed 19682256.

B1: Phage shock protein B (Escherichia coli (strain K12)), P0AFM9 (parent)
chain: MSALFLAIPLTIFVLFVLPIWLWLHYSNRSGRSELSQSEQQRLAQLADEAKRMRERIQALESILDAEHPNWRDR
partner: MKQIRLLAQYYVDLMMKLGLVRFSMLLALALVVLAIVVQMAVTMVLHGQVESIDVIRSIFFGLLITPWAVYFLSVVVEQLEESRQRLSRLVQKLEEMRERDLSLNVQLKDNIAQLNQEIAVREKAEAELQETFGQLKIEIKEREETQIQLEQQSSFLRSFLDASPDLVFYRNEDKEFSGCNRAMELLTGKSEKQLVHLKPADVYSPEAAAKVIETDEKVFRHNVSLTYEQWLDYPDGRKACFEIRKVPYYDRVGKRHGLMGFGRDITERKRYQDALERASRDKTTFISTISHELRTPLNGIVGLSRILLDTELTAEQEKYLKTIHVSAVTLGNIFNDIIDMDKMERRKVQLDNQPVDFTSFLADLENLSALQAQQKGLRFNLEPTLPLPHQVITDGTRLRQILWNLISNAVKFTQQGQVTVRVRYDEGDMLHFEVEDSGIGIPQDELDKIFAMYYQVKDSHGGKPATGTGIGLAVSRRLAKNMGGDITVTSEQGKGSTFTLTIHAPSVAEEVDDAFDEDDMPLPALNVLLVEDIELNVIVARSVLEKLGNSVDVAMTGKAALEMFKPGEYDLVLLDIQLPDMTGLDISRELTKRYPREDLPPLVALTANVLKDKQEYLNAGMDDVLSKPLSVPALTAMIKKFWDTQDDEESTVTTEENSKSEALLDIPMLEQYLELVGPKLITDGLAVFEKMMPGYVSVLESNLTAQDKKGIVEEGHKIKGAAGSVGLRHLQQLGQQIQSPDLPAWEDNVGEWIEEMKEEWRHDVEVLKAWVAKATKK
B2: Aerobic respiration control sensor protein ArcB (Escherichia coli (strain K12)), P0AEC3 (parent)
chain: B1 partner
B3: Aerobic respiration control sensor protein ArcB (Escherichia coli (strain K12)), P0AEC3 (parent)
chain: B1 partner
partner: B1 chain

Variants of: B1
Conditions: with arcb_ecoli arcB, P0AEC3

| Variant | effect of a mutation on the interaction |
| --- | --- |
| MSALFLAIPATIFVAFVAPIWLWLHYSNRSGRSELSQSEQQRLAQLADEAKRMRERIQALESILDAEHPNWRDR | decreasing interaction strength |

Variants of: B2
Conditions: with pspa_ecoli pspA

| Variant | effect of a mutation on the interaction |
| --- | --- |
| L87A;L90A;L94A;M97A | decreasing interaction strength |

Variants of: B3
Conditions: with pspb_ecoli pspB, P0AFM9

| Variant | effect of a mutation on the interaction |
| --- | --- |
| L87A;L90A;L94A;M97A | decreasing interaction strength |
